Experimental findings from PMC5610937 (Journal of molecular biology, 2017) are described below.

Experiment [1] concerns the target Fc-hROR2 protein (Homo sapiens (Human)., UniProt Q01974). Kind of experiment: ELISA. (In general: An ELISA detects its analyte on a solid surface through an enzyme-linked reagent.)
Experiment [2] deals with human ROR2 ectopically and stably expressed on mouse pre-B cell line 63-12 (Homo sapiens (Human)., UniProt Q01974). The experiment in a line: flow cytometry on cells.
Experiment [3] has as its target human Fc fusion protein of the extracellular domain of mouse ROR1 (Mus musculus (Mouse)., UniProt Q9Z139). Kind of experiment: ELISA.

human Fc fusion protein of the extracellular domain of mouse ROR1, sequence (Q9Z139 30-406): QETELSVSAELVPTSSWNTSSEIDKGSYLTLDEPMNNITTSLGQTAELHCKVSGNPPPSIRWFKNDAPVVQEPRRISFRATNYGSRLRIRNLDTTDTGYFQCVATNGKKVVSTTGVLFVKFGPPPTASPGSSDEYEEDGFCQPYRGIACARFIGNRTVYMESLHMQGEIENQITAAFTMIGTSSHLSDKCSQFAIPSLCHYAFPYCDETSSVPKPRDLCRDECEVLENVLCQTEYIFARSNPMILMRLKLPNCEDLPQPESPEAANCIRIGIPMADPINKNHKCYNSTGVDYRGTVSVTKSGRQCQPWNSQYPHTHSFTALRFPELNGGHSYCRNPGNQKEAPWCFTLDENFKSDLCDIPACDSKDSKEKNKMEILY

B1: chimeric rabbit/human anti-human ROR1 Fab ERR1-409 (Fab, V domains shown)
VH: QEQLVESGGRLVTPGGSLTLTCTASGFSLSSYYMGWVRQAPGKGLEWIGTIYGGSGSTWYASWVKGRFTISKTSTAVDLKITSLTTEDTATYFCARSYPGWTTEPYFDIWGPGTLVTVSS
VL: QFVLTQPQSVSGSLGQTVSISCNRDSGNIEDYYVHWYQQHPGKAPTTVIYNDDQRPSGVPDRFSGSIDSTSNSASLTITGLLAEDEADYYCLSSDSSAYVFGGGTQLTVT
On to B1, for which the binding result is on record as “no binding (tested: 100 ng Fab in 50 μL)” in experiment [1], “no binding (tested: 10 μg/mL)” in experiment [2] and “no binding (tested: 100 ng Fab in 50 μL)” in experiment [3].

B2: chimeric rabbit/human anti-human ROR1 Fab ERR1-TOP22 (Fab, V domains shown)
VH: QSLEESGGRLVTPGTPLTLTCTVSGFSLSSYYMSWVRQAPGKGLEWIGTISSSGSTYYASWVKGRFTISKTSTTVDLKMTSLTTEDTATYFCARDLDYDMDLWGPGTLVTVSS
VL: SYELTQLPSVSVSLGQTARITCGGNSIGSKAVHWYQQKPGLAPGLLIYNDDERPSGVPDRFSGSNSGDTATLTISGAQAGDEADYYCQLWDNNAAVFGGGTQLTVT
On to B2, for which the results for the binding result in experiment [1], in experiment [2] and in experiment [3] were “no binding (tested: 100 ng Fab in 50 μL)”, “no binding (tested: 10 μg/mL)” and “binds”, respectively.

B3: chimeric rabbit/human anti-human ROR1 Fab ERR1-TOP4 (Fab, V domains shown)
VH: QSVEESGGRLVTPGTPLTLTCTASGIDLSRYAVNWVRQAPGKGLEWIGVISGSGTTYYASWAKGRFTISKTSTTVDLKITSPTTEDTATYFCARGWATDGIFDYDDTFNLWGPGTLVTVSS
VL: SYELTQLPSVSVSLGQTARITCGGDSIESKAVHWYQQKPGLAPGLLVYNDDERPSGVPDRFSGSNSGDTATLTISGAQAGDEADYYCQLWDGSAYVFGGGTQLTVT
In the case of B3, the binding result in experiment [1] is “no binding (tested: 100 ng Fab in 50 μL)”; in experiment [2], “no binding (tested: 10 μg/mL)”; in experiment [3], “no binding (tested: 100 ng Fab in 50 μL)”.

B4: chimeric rabbit/human anti-human ROR1 Fab XBR1-402 (Fab, V domains shown)
VH: QEQQKESGGGLFKPTDTLTLTCTASGFDISSYYMSWVRQAPGNGLEWIGAIGISGNAYYASWAKSRSTITRNTNLNTVTLKMTSLTAADTATYFCARDHPTYGMDLWGPGTLVTVSS
VL: SYELTQLPSVSVSLGQTARITCEGNNIGSKAVHWYQQKPGLAPGLLIYDDDERPSGVPDRFSGSNSGDTATLTISGAQAGDEADYYCQVWDSSAYVFGGGTQLTVT
For B4, the binding result in experiment [1] is listed as “no binding (tested: 100 ng Fab in 50 μL)”; in experiment [2], “no binding (tested: 10 μg/mL)”; in experiment [3], “no binding (tested: 100 ng Fab in 50 μL)”.

B5: chimeric rabbit/human anti-human ROR1 Fab ERR1-306 (Fab, V domains shown)
VH: QEQLKESGGGLVQPGGSLKLSCKASGFDLSNYGVSWVRQAPGKGLEWIGYIDPTFDYTYYASWVNGRFSISRENTQNTVSLQINSLTPADTATYFCARWVYGVDDYGDGNWLDLWGQGTLVTISS
VL: QFVLTQSPSVSAALGASAKLTCTLSSAHKTYTIDWYQQQQGEAPRYLMELKSDGSYTKGTGVPDRFSGSSSGADRYLIIPSVQADDEADYYCGTDYSGGYVFGGGTQLTVT
As for B5, the binding result in experiment [1] is given as “no binding (tested: 100 ng Fab in 50 μL)”; in experiment [2], “no binding (tested: 10 μg/mL)”; in experiment [3], “binds”.

B6: chimeric rabbit/human anti-human ROR1 Fab ERR1-TOP43 (Fab, V domains shown)
VH: QSLEESGGRLVTPGTPLTLTCTVSGFSLSSYWMSWVRQAPGKGLEWIGAIYGSGNTYYASWAKGRFTISKTSTTVDLKITSPTTEDTATYFCARDVHSTATDLWGPGTLVTISS
VL: SYELTQLPSVSVSLGQTARITCGGNNIGSKAVNWYQQKPGLAPGLLIYNDDERPSGVPDRFSGSNSGDTATLTISGAQAGDEADYYCQLWDSSAGAYVFGGGTQLTVT
For B6, the binding result in experiment [1] is given as “no binding (tested: 100 ng Fab in 50 μL)”; in experiment [2], “no binding (tested: 10 μg/mL)”; in experiment [3], “no binding (tested: 100 ng Fab in 50 μL)”.

B7: chimeric rabbit/human anti-human ROR1 Fab ERR1-316 (Fab, V domains shown)
VH: QEQLEESGGRLVTPGTPLTLTCTASGFFLSSYYVSWVRQAPGKGLEWIGAIGTGGSAYYASWAKSRSTITRNTNLSTVTLKMTSLTAADTATYFCARDHPNYGMDLWGPGTLVTVSS
VL: SYELTQLPSVSVSLGQTARITCGGNSIGSKAVNWYQQKPGLAPGLLIYDDDERPSGVPDRFSGSNSGDTATLTISGAQAGDEADYYCQLWDSSTGAYAFGGGTQLTVT
Take B7: the binding result in experiment [1] is recorded as “no binding (tested: 100 ng Fab in 50 μL)”; in experiment [2] it was “no binding (tested: 10 μg/mL)”; in experiment [3], “no binding (tested: 100 ng Fab in 50 μL)”.

B8: chimeric rabbit/human anti-human ROR1 Fab ERR1-403 (Fab, V domains shown)
VH: QEQLKESGRGLVQPGGSLKLSCKASGFDFSGWYMTWVRQAPGKGLEWIGTIGTTKGRTYYASWVNGRFTISSNAQNTVDLQMNSLTAADRATYFCVRGSDYFDLWGPGTLVTISS
VL: SYELTQLPSVSVSLGQTARITCGGNSIGSKAVNWYQQKPGLAPGLLIYDDDERPSGVPARFSGSNSGDTATLTISGAQAGDEADYYCQLWDSSAGAYVFGGGTQLTVT
Regarding B8, the binding result in experiment [1] was “no binding (tested: 100 ng Fab in 50 μL)”; in experiment [2] it was “no binding (tested: 10 μg/mL)”; in experiment [3] it was “no binding (tested: 100 ng Fab in 50 μL)”.

B9: chimeric rabbit/human anti-human ROR1 Fab ERR1-TOP15 (Fab, V domains shown)
VH: QEQLVESGGRLVTPGGSLTLTCAASGFSPSSYWMSWVRQAPGKGLEWIGAIYVDSGSAYYASWAKSRFTISKTSSTTVDLKMTSLTTEDTAIYFCARDGWGSDVWGPGTLVTISS
VL: SYELTQLPSVSVSLGQTARITCGGNSIGSKAVHWYQQKPGLAPGLLIYDDDERPSGVPDRFSGSNSGDTATLTISGAQAGDEADYYCQLWDSSAGAYVFGGGTQLTVT
On to B9, for which the binding result in experiment [1] is on record as “no binding (tested: 100 ng Fab in 50 μL)”; in experiment [2] it was “no binding (tested: 10 μg/mL)”; in experiment [3] it was “no binding (tested: 100 ng Fab in 50 μL)”.

B10: chimeric rabbit/human anti-human ROR1 Fab ERR1-301 (Fab, V domains shown)
VH: QEQLEESGGGLVTPGGSLTLTCTASGFTISTYHMSWVRQAPGKGLEWIGSIYAGSGSTYYASWVNGRFTISSNTTQNTVSLQMNSLTVADTATYFCARDHPSYGMDLWGPGTLVTVSS
VL: SYELTQLPSVSVSLGQTARITCGGNSIGSKAVNWYQQKPGLAPGLLIYDDDERPSGVPDRFSASNSGDTATLTISGAQAEDEADYYCQLWDSSAVAYVFGGGTQLTVT
As to B10, the binding result is recorded as “no binding (tested: 100 ng Fab in 50 μL)” in experiment [1], “no binding (tested: 10 μg/mL)” in experiment [2] and “no binding (tested: 100 ng Fab in 50 μL)” in experiment [3].

B11: chimeric rabbit/human anti-human ROR1 Fab ERR1-TOP54 (Fab, V domains shown)
VH: QSLEESGGRLVTPGTPLTLTCTASGFSLSDYYMSWVRQAPGEGLEWIGTIYGGSGNTWYATWAKGRFTISKTSTTVDLKITSPTTEDTATYFCARDFGLSTGGLWGPGTLVTISS
VL: SYELTQLPSVSVSLGQTARITCGGNSIGSKAVNWYQQKPGLAPGLLIYDDDERPSGVPDRFSGSNSGDTATLTISGAQAGDEADYYCQLWDSSARAFVFGGGTQLTVT
As for B11, the binding result in experiment [1] is given as “no binding (tested: 100 ng Fab in 50 μL)”; in experiment [2], “no binding (tested: 10 μg/mL)”; in experiment [3], “no binding (tested: 100 ng Fab in 50 μL)”.
